The assay has as its target T1, TACI-Fc fusion protein (transmembrane activator and CAML-interactor fused to Fc) (Homo sapiens (Human), UniProt O14836 1-159).
T1 construct: also called TACI-FC protein; Full-length TACI-Fc; not shown: Fc part from the vector pC4-Fc
T1 sequence: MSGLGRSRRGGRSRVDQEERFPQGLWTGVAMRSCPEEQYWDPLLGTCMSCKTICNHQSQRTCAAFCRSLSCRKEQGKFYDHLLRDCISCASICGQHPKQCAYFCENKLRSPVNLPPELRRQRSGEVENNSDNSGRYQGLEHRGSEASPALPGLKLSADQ
Description: BIAcore (SPR), TACI-Fc amine-coupled to a CM5 chip, TNF-epsilon in flow. On the procedure:
BIAcore analysis was performed essentially as follows. TACI-FC protein was immobilized to the BIAcore sensor chip (CM5 chip) via amine groups using N-ethyl-N′-(dimethlaminopropyl)carbodiimide/N-hydroxysuccinimide chemistry. Various dilutions of TNF-epsilon or other TNF ligands were flowed over the receptor-derivatized flow cells at a rate of 15 microliters per minute for a total volume of 50 microliters. The amount of bound protein was determined during washing of the flow cell with HBS buffer (10 mM HEPES, pH 7.4, 150 mM NaCl, 3.4 mM EDTA, 0.005% Surfactant P20). Binding specificity of TNF-epsilon to TACI was determined by competition with soluble competitor. The flow cell surface was regenerated by displacing bound protein by washing with 20 microliters of 10 mM glycine-HCl, pH=2.3.
A general note: SPR reads the build-up and loss of mass on a sensor chip optically.

Our source for the Kd values is US20030166864A1 (Human Genome Sciences, published 2003).

B1: TNF-epsilon (purified, trimeric form isolated by size exclusion chromatography) (ligand)
chain: AVLTQKQKNDSDVTEVMWQPALRRGRGLQAQGYGVRIQDAGVYLLYSQVLFQDVTFTMGQVVSREGQGRQETLFRCIRSMPSHPDRAYNSCYSAGVFHLHQGDILSVIIPRARAKLNLSPHGTFLGFVKL
A word on the Kd: it is the equilibrium constant for the complex coming apart. Turning to B1, binding was characterised by a dissociation constant (Kd) of 6 nM.
